According to the supplement of paper PMC9170038:

Tested on: MS2 coat protein
Assay: apparent KD of MS2 coat protein; designed switch direction (-1 OFF switch, 1 ON switch): -1; higher = weaker reporter binding
How it was run: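 Each step of the titration lasted 0.8–1.5 h at the lowest concentration and 10–20 min at the highest. The protein, SNAP-549-labelled MS2 coat protein, went from 0.7 or 1.5 nM doubling to 3 µM over RNA switches transcribed on Illumina chips by stalled E. coli RNA polymerase. Normalised cluster fluorescence was curve-fitted, and the per-design median over clusters is given as apparent KD.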

[1] = Eterna round: R95, input ligand: FMN 200 uM
[2] = Eterna round: R95, input ligand: microRNA oligo, concentration not stated
[3] = Eterna round: R95, input ligand: none
[4] = input ligand: microRNA oligo, concentration not stated

Sequence | apparent KD of MS2 coat protein (input ligand: FMN 200 uM) [nM] | apparent KD of MS2 coat protein (input ligand: none) [nM] | apparent KD of MS2 coat protein [1] [nM] | apparent KD of MS2 coat protein [2] [nM] | apparent KD of MS2 coat protein [3] [nM] | apparent KD of MS2 coat protein [4] [nM]
CUGAUUCUAGUAAGGAUAUCGGCGUGCACAGCAGCCGAGAAGGUACAUGAGGAUCACCCAUGUUGCUUCAACUU [Eternabot (Original) Solution 43] (Eterna round: R97, puzzle: Brourd's mod of Exclusion 4) | 69.5 | 31.2 |  |  |  | 
UGUACGAUGCGUGCUGACAUGCGUCGUGCAGCAGGUGGAACAUGAGGAUCACCCAUGUCCUCAUUUGCUCGUCUUAU [Mat - Sensor v3 - Turn-off var 2 - D21] (puzzle: Sensor v3, turn-off variant 2) |  |  | 35.2 | 155 | 34.6 | 
GAUAUGCGUGUGAGGAUAUUCGACGCGCAAACGGAGAAGAAGGCACAUGAGGAUCACCCAUGUGGAGGGAAGAA [BmEX4 A.13] (Eterna round: R97, puzzle: Brourd's mod of Exclusion 4) | 82.8 | 20.7 |  |  |  | 
GGUGGACAUGAGGAUCACCCAUGUGAGGAUAUCGGCUAUCUUCUCGCUGUCGGUUGCUCGAGAAGGCACAUUGU [Exclusion 1 V94] (puzzle: Exclusion 1) |  |  |  | 52.2 |  | 
GCACGAAGUGGAGGAUAUCUGGGCGAGGAGCGCAGAGAAGGCCACAUGAGGAUCACCCAUGUGUUCCACGGAUCGCAAACGUGC [exng1 ex2] (Eterna round: R96, puzzle: Exclusion NG 1) | 69.3 | 20.9 |  |  |  | 14.4
UAAGAUUACCGAGGAUAUGGUAGUACAUAUUAACCAGAAGGCGGACUCAACAUGAGGAUCACCCAUGUAUAAAGGGUAUUAGGU [JR_ExcNG1_Sub042] (Eterna round: R96, puzzle: Exclusion NG 1) | 84.7 | 60.3 |  |  |  | 60.3
UAUUAACAAGCUAGAUCUUACAUGAGGAUCACCCAUGUGCUCGUCUUAUAAGGUACUGUGACGAAAGUCACGGUACC [Sensor 3, v1 - 77] (puzzle: Sensor v3, turn-off variant 1) |  |  | 22.7 | 149 | 22.5 | 
GCGGAGUCAGGAUAUUGAAUUUAACGUACCAAUUAGGUACGCGAGAAGGGACAUGAGGAUCACCCAUGUACCGC [Eli x4 4.03] (Eterna round: R97, puzzle: Exclusion 4) | 11.4 | 15.9 |  |  |  | 
AAAAGGUCAGGAUAUCGACGCGGUUGGGAGGCAGGUCCGCGCGAGAAGGGACAUGAGGAUCACCCAUGUUAAAA [Excls4-IV] (puzzle: Exclusion 4) |  |  | 33.5 | 22.8 | 26.4 | 
UGAUCUAGCGGAGGAUAUACAUGAGGAUCACCCAUGUAGACUCUAUGACCGUAGUCGUGGAGAGUGUAGAAGGCCGCUAGAUCU [JL ENG2 3.75] (Eterna round: R96, puzzle: Exclusion NG 2) | 16.6 | 13.1 |  |  |  | 8.79
AUAAAGUCAGGAUAUCGAAGUGAGUGGAGAGGAGGGAGGUACGAGAAGGGACAUGAGGAUCACCCAUGUAGGAA [JR_Exclusion4)Sub006] (puzzle: Exclusion 4) |  |  | 25.5 | 24.2 | 21.9 | 
GUUAUCGCAGGAUAUUAGUACUUGUACAUGAGGAUCACCCAUGUUUAUUGGGUCUAAGAAUAAGAAGGGCGAUGAA [JR_Ex5_Sub005] (Eterna round: R97, puzzle: Exclusion 5) | 105 | 32 |  |  |  | 
UUUUAGUCAGGAUAUACAUUUUUUUAUUUAUUUAUAAUAUUACAUGAGGAUCACCCAUGUAGAAGGGACAUUUU [My Design] (puzzle: Exclusion 2) |  |  |  | 29.6 |  | 
AAAAUGUGAGGAUAUCCAAUAUAUGACAUGAGGAUCACCCAUGUUUCCACUCGUACCUCCGGAGAAGGCACUAAAA [Ex5 #42] (Eterna round: R97, puzzle: Exclusion 5) | 21.9 | 29 |  |  |  | 
CCCUCGGGAGGAUAUGGGUGUUUUUACAUGAGGAUCACCCAUGUAGAGUAAUAUGUGGGUCCAGAAGGCCCAAGGG [-26, -24.7 kcal, 25% A] (Eterna round: R97, puzzle: Exclusion 5) | 86.9 | 210 |  |  |  | 
GAGGAUGUAGGAUAUACUUAGGGUGAGCUCUAAGUGAAUCAACAUGAGGAUCACCCAUGUAGAAGGGCAGGACG [Eternabot (Original) Solution 37] (Eterna round: R97, puzzle: Exclusion 2) | 248 | 122 |  |  |  | 
AGUACUAUGCGAGCUGACUUGCGUAGUGCAGCAGGUGAAACAUGAGGAUCACCCAUGUCCUCAUUUGCUCGUCUUAA [Mat - Sensor v3 - Turn-off var 2 - D3] (puzzle: Sensor v3, turn-off variant 2) |  |  | 39.7 | 563 | 38 | 

Sequence | apparent KD of MS2 coat protein (input ligand: FMN 200 uM) [nM] | apparent KD of MS2 coat protein (input ligand: none) [nM] | apparent KD of MS2 coat protein [1] [nM] | apparent KD of MS2 coat protein [2] [nM] | apparent KD of MS2 coat protein [3] [nM] | apparent KD of MS2 coat protein [4] [nM]
UAGCAUUGCCUUUGGUAGUGCAUUACAUGAGGAUCACCCAUGUAGGAUAUGGUAGGCUUUGCUUACCAGAAGGACAUGAUAAUU [JL ENG3 1.05] (Eterna round: R96, puzzle: Exclusion NG 3) | 135 | 48.7 |  |  |  | 38.9
ACGGACUGAGGAUAUGCAUGCAGGAUACCUUAGUCCAAGGGACAUGAGGAUCACCCAUGUAGAAGGCGGAAAUA [Riedzaanor] (Eterna round: R97, puzzle: Exclusion 2) | 26.1 | 26.5 |  |  |  | 
GAUUGACAUGAGGAUCACCCAUGUGAGGAUAUCGGCUGGACCGUGUUGGCUUCGGUUUCGAGAAGGCGCAUAGG [Exclusion 1 V45] (puzzle: Exclusion 1) |  |  | 52.9 | 90.1 | 102 | 
UUGUUAUAUGUAGGAUAUGCAUAUUAUUAUUAUGCAGAAGGACAUGAGGAUCACCCAUGUGUAUUAUUAUUAUAUAUUAUAUAU [Title] (Eterna round: R96, puzzle: Exclusion NG 1) |  |  |  |  |  | 17.4
GCUGGUCGAGGAUAUACAUGAGGAUCACCCAUGUUGAUCAACUGCCGAUAGGCAGAAUGUAGAAGGCGACCAGC [E3/7-A1] (Eterna round: R97, puzzle: Exclusion 3) | 137 | 1110 |  |  |  | 
CACAAAGUAGGAUAUAGAAUAAAAGACAUGAGGAUCACCCAUGUGUCGUUCAAGGUGAACCUAGAAGGACUGAAAA [EX5 A.28] (Eterna round: R97, puzzle: Exclusion 5) | 45.1 | 116 |  |  |  | 
CGCACACAUGAGGAUCACCCAUGUGAGGAUAUCAUGCUUCGUAGUAAACUACGAAGUGUGAGAAGGCACAUGUU [Omei Ex1 D9] (Eterna round: R97, puzzle: Exclusion 1) | 144 | 55 |  |  |  | 
GGCAUCGGAGGAUAUAUUUAUGGUGAUACCCGAAGCUUUCUACUUGAGGAUCACCCAAGUAGAAGGCCGAUGCC [jl-ex2.4.82 ViennaUCT mod] (Eterna round: R97, puzzle: Exclusion 2) | 17.4 | 10.9 |  |  |  | 
CCGGUUGGCGCAGGAUAUACAUGAGGAUCACCCAUGUUCGUGAGGAUCACCCAUGAGUUUUUGUUGUAGAAGGGUGGCCCGGCC (Eterna round: R96, puzzle: Exclusion NG 2) | 24.4 | 28.5 |  |  |  | 16
CUUGUUUAUGUAGGAUAUGCCUGGCGUGCCUUUGCAGAAGGACAUGAGGAUCACCCAUGUAACAUGAGGCUCACCCUUGUCGCA [salish99_ExNG1_r04_115] (Eterna round: R96, puzzle: Exclusion NG 1) | 183 | 162 |  |  |  | 62
ACAUGAGGAUCACCCAUGUGCACGUAAUGGCUCAUGUAGAGUGAGGAUAUGCGUGGCGAACGAGCGCAGAAGGCACAAGACUGG [Deportation 17 - Jieux - Exclusion NG 3] (Eterna round: R96, puzzle: Exclusion NG 3) | 106 | 72.6 |  |  |  | 56.4
CAGUACUGAGGAUAUACAUGAGGAUCACCCAUGUGUGUGAAAUUUAUGUGGUCGUAAUGUAGAAGGCAGUACUG [JR_Ex3_Sub028] (Eterna round: R97, puzzle: Exclusion 3) | 30.5 | 62.9 |  |  |  | 
GUUGUUUAUGUAGGAUAUGCGAGGCGAGCCUAAGCAGAAGGACAUGAGGAUCACCCAUGUAUUGCGGUCUGCGUUCAGAUCGCU [salish99_ExNG1_r4_016] (Eterna round: R96, puzzle: Exclusion NG 1) | 183 | 26.9 |  |  |  | 19.2
GGCAAUAACGAGGAUAUCCUAUGGGAAACCAUAGGAGAAGGUGUAACAUGAGGAUCACCCAUGUUCCUCAAGCC [Mat - Exclusion 6 - Eli Mod - D67] (puzzle: Exclusion 6) |  |  | 43.3 | 34.7 | 39.8 | 
AUGGCAAAGUUAGGAUAUGCAGUCUCCAAGACUGCAGAAGGAACGGUCCUCCUCCCUGAAACAUGAGGAUCACCCAUGUAAAGC [Eternabot solution 45] (Eterna round: R96, puzzle: Exclusion NG 1) | 56.4 | 93.8 |  |  |  | 53.7
UUGAUUCAUUCCUCCAUAAACAUGAGGAUCACCCAUGUAAGUGAGGAUAUAGUUGGAGUAGUAUACUAGAAGGCACUUAGAUAU [JR_ExcNG3_Sub047] (Eterna round: R96, puzzle: Exclusion NG 3) |  |  |  |  |  | 8.77
